Molecular target: complement protein C1q (human, UniProt P02745 23-245; P02746 28-253; P02747 29-245)
Assay: SPR

Sequence of complement protein C1q (P02745 23-245, chain 1 of 3): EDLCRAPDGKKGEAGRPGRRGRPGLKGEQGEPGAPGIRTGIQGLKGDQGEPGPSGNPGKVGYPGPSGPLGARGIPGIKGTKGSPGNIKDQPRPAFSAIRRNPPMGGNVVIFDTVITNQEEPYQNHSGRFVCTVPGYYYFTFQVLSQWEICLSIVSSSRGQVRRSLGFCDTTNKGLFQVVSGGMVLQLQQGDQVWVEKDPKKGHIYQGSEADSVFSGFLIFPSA
Sequence of complement protein C1q (P02746 28-253, chain 2 of 3): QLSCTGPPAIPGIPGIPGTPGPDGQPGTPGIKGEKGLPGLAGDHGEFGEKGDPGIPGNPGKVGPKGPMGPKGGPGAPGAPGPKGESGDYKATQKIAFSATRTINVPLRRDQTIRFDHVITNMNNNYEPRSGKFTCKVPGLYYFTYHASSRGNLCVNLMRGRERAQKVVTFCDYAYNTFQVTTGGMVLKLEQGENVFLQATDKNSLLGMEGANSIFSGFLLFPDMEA
Sequence of complement protein C1q (P02747 29-245, chain 3 of 3): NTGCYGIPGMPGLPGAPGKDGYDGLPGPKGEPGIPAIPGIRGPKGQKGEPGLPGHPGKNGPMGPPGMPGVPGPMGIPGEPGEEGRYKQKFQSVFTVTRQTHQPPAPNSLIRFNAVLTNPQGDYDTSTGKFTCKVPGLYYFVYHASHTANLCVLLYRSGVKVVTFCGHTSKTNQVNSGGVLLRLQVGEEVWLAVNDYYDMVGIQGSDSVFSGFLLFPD

| Kd [nM] | Binder |
| --- | --- |
| 19 | SR-F1(20-221) (domain or fragment) SELDPKGQHVCVASSPSAELQCCAGWRQKDQECTIPICEGPDACQKDEVCVKPGLCRCKPGFFGAHCSSRCPGQYWGPDCRESCPCHPHGQCEPATGACQCQADRWGARCEFPCACGPHGRCDPATGVCHCEPGWWSSTCRRPCQCNTAAARCEQATGACVCKPGWWGRRCSFRCNCHGSPCEQDSGRCACRPGWWGPECQQLIK |
| 42 | SR-F1(20-353) (domain or fragment, N-linked glycan at Asn 289) SELDPKGQHVCVASSPSAELQCCAGWRQKDQECTIPICEGPDACQKDEVCVKPGLCRCKPGFFGAHCSSRCPGQYWGPDCRESCPCHPHGQCEPATGACQCQADRWGARCEFPCACGPHGRCDPATGVCHCEPGWWSSTCRRPCQCNTAAARCEQATGACVCKPGWWGRRCSFRCNCHGSPCEQDSGRCACRPGWWGPECQQQCECVRGRCSAASGECTCPPGFRGARCELPCPAGSHGVQCAHSCGRCKHNEPCSPDTGSCESCEPGWNGTQCQQPCLPGTFGESCEQQCPHCRHGEACEPDTGHCQRCDPGWLGPRCEDPCPTGTFGEDCGSLIK |
| 154 | SR-F1(20-421), recombinant soluble SR-F1 ectodomain (domain or fragment, N-linked glycans at Asn 289, 382 and 393) SELDPKGQHVCVASSPSAELQCCAGWRQKDQECTIPICEGPDACQKDEVCVKPGLCRCKPGFFGAHCSSRCPGQYWGPDCRESCPCHPHGQCEPATGACQCQADRWGARCEFPCACGPHGRCDPATGVCHCEPGWWSSTCRRPCQCNTAAARCEQATGACVCKPGWWGRRCSFRCNCHGSPCEQDSGRCACRPGWWGPECQQQCECVRGRCSAASGECTCPPGFRGARCELPCPAGSHGVQCAHSCGRCKHNEPCSPDTGSCESCEPGWNGTQCQQPCLPGTFGESCEQQCPHCRHGEACEPDTGHCQRCDPGWLGPRCEDPCPTGTFGEDCGSTCPTCVQGSCDTVTGDCVCSAGYWGPSCNASCPAGFHGNNCSVPCECPEGLCHPVSGSCQPGSGSRDTLIK |

From paper PMC7137648 (2020)
